The nature of the series: soluble on expression in E. coli; label from the status in PepcDB or PDB records.
In the case of “MAAFSQLYDLHINILFNYGLKLTIDKELLKDCIHDIFVKLYTKKDELGTIDNLKSYLFISLKNKLCDELRKRMYMSDTAIEDVNAVAPTDVEDDYMEEEQRKNEFSLVKRLLDQLSPRQREALTLYYIEEKKYEDICEIMNMNYQSVRNLMHRGLTKLRSLAS”, the “soluble on expression in E. coli” value is recorded as “not soluble”.

Take “MAAGTFTAQNKVRPGVYINFKSEPQAAGTLGERGIVSMPLILSWGEPGKMITIEAGDDVFPKLGYSIMDAQLRLINEALKRAKTLLLYRLNAGTKAAVTVGNLTVTAKWGGARGNDITLVIQENIDDETKFDVSTLVDGAELDKQTVSDIAGLAANDWVIFSGTGALTETAGAPLINGSDGAVTNQAYIDYLAAVEIFDFNTIALPSTDDALKATFTAFAKRLRDDEGKKIQVVLENYPAADYEGVISVKNGVVLADGTILTAAQATAWVAGATAGARVNESLTYQGYDEAVDVAPRYTNAQIIAALQAGEFLFTASDNQALVEQDINTLTSFTADKGKQFAKNRVIRVLDGINNDFVRIFSKFYIGKVSNNADGRNLLKSECINYMNTLQDIDAIKNFDGQTDLTVQSGNDVDAVYIEAYAWPVDSIEKIYVRVRIKLEHHHHHH”: the “soluble on expression in E. coli” value is listed as “soluble”.

For “MAAKNAFYAQSGGVTAVINASAAGVIEAARKQSGKIGRIYAGRNGIIGALTEDLIDTGQESDAAISALRYTPSGAFGSCRYKLKSLEQNRREYERLIEVFKAHDIGYFFYNGGGDSADTCLKVSQLSGTLGYPIQAIHVPKTVDNDLPITDCCPGFGSVAKYIAVSTLEASFDVASMSATSTKVFVLEVMGRHAGWIAAAGGLASSPEREIPVVILFPEISFDKQKFLAKVDSCVKKFGYCSVVVSEGVKGDDGKFLSDQGVRDAFGHAQLGGVAPVVASMVKEGLGLKYHWGVADYLQRAARHIASKTDVEQAYAMGQAAVEFAVQGHNSVMPTIERISARPYQWKVGMAQLSQVANVEKMMPENFITEDGFGITDLCREYLAPLIEGEDYPPYKDGLPDYVRLKNVAVPKKLSGFTL”, the “soluble on expression in E. coli” value was “soluble”.

Take “MAAKRLAVLCIFLLPNTQFRQLRLAETAEELPQLLREAEKASWTYLEFLESITRYELAKREAKSLEKRMKWARFPFVKSLDEFELRGQNVLTARQLSQLRELSWLEQQYNLILLGPPGIGKTYIAIGLGLEAVYRGFHVYFATMGELVQLLKSEEYLNKSKVQLKRIRNADLVIIDDLMYMAMDQREANLFFHLINHLYERSSIILTSNKSPEEWGHLIGDQGITTAILDRLLHRVEVIHGGENEESHRMKNRKSIFSAEVLEHHHHHH”: the “soluble on expression in E. coli” value is on record as “not soluble”.

With “MAAKVEPFWKRKTLAQLDQDEWESLCDGCGLCCLQKLEDEDDGSVYYTRIACKLLDLQSCRCTNYAERIRFVPDCIQLTPAQADEFQWLPPTCGYRLVAEGKDLPLWHHLVCGDPERVHKERISQSGRMLSETQVAEDDWEDYLIFRAG”, the “soluble on expression in E. coli” value was “not soluble”.

As for “MAALSDKLADAYQNARPRYPIDWFTKLAARTGQHKSAWDVGTGNGQAAIGLAEYFEKVTATDINEAQLKRAVKHERISYHHTPTTMSEDQMVALVGGDNSVDLIVAAQAVHYFDLAPFYNVAKRVLRKEGGLIAVFVYNDIIISPEVDSIMKRLVDSTFPFRTPVMNLAFDGYKTLPFPFESIGMGSEGKPIMLDIPHKLSLKGFIGFLRSWQPAMKAKERGVELVTEDLISKFEDAWGDDDDVKDIFYKAHMIVGKLSASDIERHRKRFDTNCVVTTLKDHNNSAVIASVTAAAFAGVAAYCAYSARKNS”, the “soluble on expression in E. coli” value is “soluble”.

As for “MAAPAQQTTQPGGGKRKGKAQYVLAKRARRCDAGGPRQLEPGLQGILITCNMNERKCVEEAYSLLNEYGDDMYGPEKFTDKDQQPSGSEGEDDDAEAALKKEVGDIKASTEMRLRRFQSVESGANNVVFIRTLGIEPEKLVHHILQDMYKTKKKKTRVILRMLPISGTCKAFLEDMKKYAETFLEPWFKAPNKGTFQIVYKSRNNSHVNREEVIRELAGIVCTLNSENKVDLTNPQYTVVVEIIKAVCCLSVVKDYMLFRKYNLQEVVKSPKDPSQLNSKQGNGKEAKLESADKSDQNNTAEGKNNQQVPENTEELGQTKPTSNPQVVNEGGAKPELASQATEGSKSNENDFS”, the “soluble on expression in E. coli” value is listed as “not soluble”.

On to “MAAQPNAPESAWPVRELNSKVKSWIERLGHLWVEGQITQLNMKPSWKFSYITLRDPEAEASVQLTCATSLLHSLPSRLQDGDRVVVYGKPAFYEGRGSFSLWVTDIRPVGVGELLARIERLRQQLASEGLFDPALKKPLPFLPHTIGLITGRGSAAERDVLAVAHSRWPEVKFNVINTAVQGARAVPEIIEALQRLDADPSVDVIIIARGGGSVEDLLPFSEEALQRAVVAAHTPVVSAIGHEPDNPVLDNVADLRAATPTDAAKKVVPDVAAERQLIAELRSRSAAALRGWVHKERQQLAAVRSRPALADPVRAITLHREEIARSISSIRRDMRYMLSTERATVASLRQQVAALGPSATLARGYAVVQVVPRDGSAPEVVTTIGMSPPGSQLRIRVADGSITAAAMQTTPAD”, for which the “soluble on expression in E. coli” value is “not soluble”.

On to “MAAQVLSGHEAAEAVYEEIRARLRSLSFTPSLRVIRLGEDPASVAYVRLKDKRARALGYRSQVEVYPEDLPEEALLERIAALNADEEVDGILVQLPLPPHIRTQRVLEAIHPLKDVDGFHPLNVGRLWSGGKGLFPCTPLGVVRLLKHYGVDLRGKEVVVVGRSNIVGKPLAGLLLREDATVTLAHSKTQDLPEVTRRAQVLVVAVGRPHLVRKEWVREGAIVVDVGVNRVEGRLLGDVHPEVAEVAFALTPVPGGVGPMTVAMLMGNTLEAALLRRHGASG”, for which the “soluble on expression in E. coli” value was “soluble”.

In the case of “MAASKKAVLGPLVGAVDQGTSSTRFLVFNSKTAELLSHHQVEIKQEFPREGWVEQDPKEILHSVYECIEKTCEKLGQLKIDISNIKAIGVSNQRETTVVWDKITGEPLYNAVVWLDLRTQSTVESLSKRITGNNNFVKSKTGLPLSTYFSAVKLRWLLDNVRKVQKAVEEKRALFGTIDSWLIWSLTGGVNGGVHCTDVTNASRTMLFNIHSLEWDKQLCEFFGIPMEILPNVRSSSEIYGLMKISHSVKAGALEGVPISGCLGDQSAALVGQMCFQIGQAKNTYGTGCFLLCNTGHKCVFSDHGLLTTVAYKLGRDKPVYYALEGSVAIAGAVIRWLRDNLGIIKTSEEIEKLAKEVGTSYGCYFVPAFSGLYAPYWEPSARGIICGLTQFTNKCHIAFAALEAVCFQTREILDAMNRDCGIPLSHLQVDGGMTSNKILMQLQADILYIPVVKPSMPETTALGAAMAAGAAEGVGVWSLEPEDLSAVTMERFEPQINAEESEIRYSTWKKAVMKSMGWVTTQSPESGIP”, the “soluble on expression in E. coli” value is on record as “not soluble”.

Regarding “MAASLGLAAAAASAWAQAPAMDHGSMPGMDHGAAPASAMDHGSMPGMDHGAAPAPAIGALPSSDGAGDQSYAAYGIHSHMMDDMATSQLLFDKLGMTYDRDRRTGLQWDGQFWVGRDLDKLWIKSEGERVGGRSDGKVEAFWNRTISPFWDLQVGARRDFGTGPKRNWGAIGLQGVAPYNIETEVTAYVGGSGRTALALKAEYDLLLTQRLVLTPEIEASVYGKDDKARGIGAGLSDASFSLRLRYEITREVAPYVGVSFGRKFGRTASYASEEGESRSERAIMAGVRIWFLEHHHHHH”, the “soluble on expression in E. coli” value was “not soluble”.

Consider “MAATATEKLPQLKSAVDGLTEMSENEKSGFINLVSRYLSGEAQHIEWSKIQTPTDEIVVPYDKMANVSEDASETKYLLDKLVVLKLNGGLGTTMGCTGPKSVIEVRDGLTFLDLIVIQIENLNNKYNCKVPLVLMNSFNTHDDTQKIVEKYTKSNVDIHTFNQSKYPRVVADEFVPWPSKGKTDKDGWYPPGHGDVFPSLMNSGKLDAFLSQGKEYVFIANSDNLGAIVDLKILKHLIQNKNEYCMEVTPKTLADVKGGTLISYEGKVQLLEIAQVPDEHVNEFKSIEKFKIFNTNNLWVNLKAIKKLVEADALKMEIIPNPKEVDGVKVLQLETAAGAAIRFFDNAIGVNVPRSRFLPVKATSDLLLVQSDLYTLVDGFVTRNKARTNPTNPAIELGPEFKKVASFLSRFKSIPSIVELDSLKVSGDVWFGSGVVLKGKVTVKANAGTKLEIPDNAVLENKDINGPEDL”, for which the “soluble on expression in E. coli” value is listed as “soluble”.

On to “MAAVDVNQPITGHKSAIIRNYNTNPRLIYQTVCGVNGPLVILNDVKFPQFSEIVKITLPDGSKRSGQVLEISKNKAVVQVFEGTSGIDAKNTICEFTGDILRTPVSEDMLGRIFNGSGKPIDKGPPVLAEDFLDINGQPINPWSRIYPEEMIQTGISAIDVMNSIARGQKIPIFSASGLPHNEIAAQIVRQGGLVQLPDRPHEQTNFAIVFAAMGVNMETARFFKQDFEENGSMENVCLFLNLANDPTIERIITPRIALTSAEFLAYQCKKHVLVVLTDMSSYAEALREVSAAREEVPGRRGFPGYMYTDLATIYERAGRVEGRDGSITQIPILTMPNDDITHPIPDLTGYITEGQIYVDRQLHNRLIYPPINVLPSLSRLMKSAIGEGMTREDHSDVSNQLYACYAIGKDVQAMKAVVGEEALSSDDLLYLEFLTKFEKNFITQGHYENRSVFESLDIGWQLLRIFPREMLKRIPESTLEKYYPRGGAKE”, for which the “soluble on expression in E. coli” value is reported as “not soluble”.

For the sequence “MADGMGNLIGWEKTGLVVGKQWITAKDDKVSDVCNANGEMGVIGLYEPFSHGALTIPGHPNCRCEVVSVSGGELGEFAEKKELRKAAMQYARDNFIGKSYVNKNSGHELKVTWQGVKHAASKANQAELSIMTKLDDLLRYAKYEGSYSDRKGHPNIIAAHKYRAVAKVGNESLNIGVIVREFPDDHKHYDHFILKDE”, the “soluble on expression in E. coli” value is listed as “not soluble”.

Consider “MADLFAGKPLINQEGKELDGGDALRGKKVVALYFSAMWCGSCRQFTPKLKRFYEALKAAGKEIEVVLVSRDREAEDLLEYLGHGGDWVAIPFGDERIQEYLKKYEVPTIPAFKLINNAGELLHDARADVTERGKDDAVALFDEWVEKFPAN”, for which the “soluble on expression in E. coli” value is “not soluble”.

As for “MADLIARLREDGIQKRVIQEGRGELPDFQDGTKATFHFRTLHSDNEGSVIDDSRTRGKPMELIVGKKFKLPVWETIVCTMREGEIAQFLCDIKHVVLYPLVAKSLRNIAEGKDPLEGQRHCCGIAQMHEHSSLGHADLDALQQNPQPLIFHIEMLKVESPGTYQQDPWAMTDEEKAKAVPVIHQEGNRLYREGQVKEAAAKYYDAIACLKNLQMKEQPGSPDWIQLDLQITPLLLNYCQCKLVAQEYYEVLDHCSSILNKYDDNVKAYFKRGKAHAAVWNAQEAQADFAKVLELDPALAPVVSRELRALETRIRQKDEEDKARFRGIFSH”, the “soluble on expression in E. coli” value is “soluble”.

Regarding “MADRKSDEGEDEYQHKEQMVTNRTSSFQPKSTEDSISKLAKMRAADRREEFMEERASFSAVKRGYQAGDDEEDDFTAEEEPPAKKPLTVAERLMAAMGHKAGEGLGKHGQGISEPIASSTQRGRTGLGHNAGKATARDFNEVWDETTEEKTVVERVEWMTDIEEEKRAEICEQLKDDKWMVIGKEKRTIDDETKFCSQQSITEMIEAKNVFDLMSDKDLREARTRANPYETIGSAFFQNRAAMKTANMDKIYDWILSRENTENDRFLLKNPLQESQTAENVDRSEDLFYFADVCAGPGGFSEYMLWRKGFYNAKGFGFTLAGKDDFKLFKFTASSQYFFETFYGTKDNGDVMDPVNIDSLEAHISRGTSGLGVHLMMADGGFSVEGQENIQEILSKRLYLCQLLVSLCIVREGGNFFCKLFDIFTPFSVGLIYLMRVCYQSVSLHKPHTSRPANSERYITCKGLRKEFANVVKEYLKRVNRKLDELKNKKSHDDVTDLMPLDVIEADQIFMDEIIRHNEFLANRQTLYLRKYQSFAKNQGQFDKDQGNLRDECLKYWQVPNKQRPRGGDRGNRHDNMQRLNPLQVYGKYCKKVCGESEIGNTFPDFSLNCLDAPLPNIPYEEYRFVPLASSGSPNLLIAAGDSAFIFRSGRFESISADHIRIPENTILLVDWAEEVVRGDGNRIKISSEPQVVRIIDAAVLFGDDVSNLPYEERMKAAEKFVAALKQTNRKVKKGWGHRAEMIKPHLKICAKTYSLAELDEFRSNLEKLEHNRELAVLFTEGEFTFRCQALRFTRIIKQEWRMGWSKSQQKPYAHSQEHQNAGSIPVELWAEKSIYSSFWDSVICLNKDKKKLMEAMEHTKGKCPIPSSIWSWKACILNLFPFFSVRTPYGPEKILNYPEPFEGKPTIAALKAQIENTDLIVKRVRN”, the “soluble on expression in E. coli” value is on record as “not soluble”.

(Values after the DeepSol protein solubility set.)
